Assays:
[1] = target: _(FITC)…, fluorescently labeled high-affinity peptide; assay: fluorescence polarisation
[2] = target: chicken Tapasin (chTapasin), luminal domain (chicken (Gallus gallus)); assay: SPR
[3] = target: chicken Tapasin (chTapasin), luminal domain (chicken (Gallus gallus)); assay: NMR chemical shift perturbation

| Kd [1] | Kd [2] | lifetime of the complex [3] | Substance |
| --- | --- | --- | --- |
| 0.0055 µM |  |  | open B*37:01/chTapasin complex (empty) (from UniProt P61769 21-119) |
|  | 1.2 µM | > 200 ms | open HLA-B*37:01 (G120C)/β2m (H31C), UV-irradiated (empty) (from UniProt P61769 21-119) (complex) |
